Laboratory results as given in patent publication US6218168A, “Process for preparing O-acetylserine, L-cysteine and L-cysteine-related products” (Consortium fur elektrochemische Inudstrie GmbH, priority 1995, dated 2001).

Columns and labels:
[1] = molecular target: wild-type form of serine acetyltransferase; details: 0.1 mM acetyl-coenzyme A and 1 mM L-serine; competitive; read-out: inhibitor constant Ki; cited from earlier work
[2] = molecular target: T1, serine acetyltransferase of cysteine-prototrophic revertant (Escherichia coli, UniProt P0A9D4, M256I); details: versus wild-type; cited from earlier work
T1 construct: host or cells: cysteine-prototrophic revertant of a cysteine-auxotrophic strain mutagenized with ethyl methanesulfonate (Denk and Bock 1987)
T1 sequence (P0A9D4 whole entry M256I): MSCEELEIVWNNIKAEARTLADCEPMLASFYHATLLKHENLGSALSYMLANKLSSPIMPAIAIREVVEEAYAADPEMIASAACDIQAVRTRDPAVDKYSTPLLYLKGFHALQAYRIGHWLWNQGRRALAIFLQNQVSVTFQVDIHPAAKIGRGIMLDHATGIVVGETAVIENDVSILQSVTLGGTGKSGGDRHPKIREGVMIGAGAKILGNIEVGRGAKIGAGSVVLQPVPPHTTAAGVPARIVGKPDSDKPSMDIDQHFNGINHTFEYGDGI

[3] = molecular target: T1, serine acetyltransferase of cysteine-prototrophic revertant; assay: Literature: end product inhibition of serine acetyltransferase from a cysteine-prototrophic revertant; type: biochemical
Method: According to the literature reference mentioned, the feedback resistance of this mutant is elevated 10-fold. Consequently, the Ki of this mutant is approx. 0.01 mM, when comparison is made with the wild-type form.

serine acetyltransferase = assay: Serine acetyltransferase enzyme activity test with and without L-cysteine (inhibitor constant Ki, specific activity); type: biochemical, E. coli; details: for Ki: inhibitor L-cysteine; for spec. act.: serine acetyltransferase activity
Text: Any method which enables the activity of the serine acetyltransferase to be determined in the presence of cysteine can be used for determining the cysteine sensitivity of this enzyme. For example, the serine acetyltransferase activity can be determined using the method described by Kredich and Tomkins, J. Biol. Chem. 241: 4955-4965 (1966). In this test, the enzyme test mixture contains the substrate, L-serine, and the cofactor, acetyl-coenzyme A. The reaction is started by adding enzyme and monitored, in a spectro photometer, by observing the decrease in absorption at 232 nm which is elicited by the cleavage of the thioester bond in the acetyl-coenzyme A.
The above-described enzyme test is suitable for determining the cysteine sensitivity of any serine acetyltransferase enzyme, including the enzymes which have a modified carboxyl terminus. Inhibition of the serine acetyltransferase activity is tested in the presence of differing concentrations of L-cysteine in the reaction mixture. The catalytic activity of the different serine acetyltransferase enzymes is determined in the presence and absence of L-cysteine, and the inhibitor constant, Ki, is ascertained from this (Kredich and Tomkins, J. Biol. Chem., 241, 4955-4965 (1966)).
In order to investigate the biochemical basis of the cysteine secretion of the revertants, the activity of the serine acetyltransferase was determined in vitro, and the ability of cysteine to inhibit the enzyme was measured. For the determination, use was made of S30 extracts (cell homogenates centrifuged at 30,000 g and 4° C. for 20 minutes) of the selected revertants, the starting strains and the comparison strain, E. coli W3110 (ATTC 27325).
The biochemical parameters such as enzyme activity and inhibitor constant, Ki, were determined in an analogous manner to that described in Example 1.
The plasmids resulting from this cloning were designated pACYC184/cysE-Del in accordance with the extent of their deletion (cf. FIG. 9 for the plasmid map). Determination of the enzymic activity and the inhibitor constant, Ki, and also the cross-feeding test, were carried out in analogy with the description in Example 1. DNA sequence analysis was used to confirm that the deletions had been correctly introduced.
Determination of the enzymic activity and of the inhibitor constant Ki, and also the cross-feeding test, were carried out in analogy with the description in Example 1.

JM15attλ::cysE strains = assay: Cysteine production in 1 L fermenter, chromosomally encoded cysE alleles; type: cell-based, E. coli; details: single chromosomal copy
Method: For the purpose of being integrated into the chromosomal attachment site (attλ), the cysE alleles cysEIV, cysEX and cysEXI were cloned into the plasmid pRS551 (Simons et al., 1987, Gene 53: 85-96). For this, each cysE allele was amplified by PCR from the corresponding cysE plasmid. The oligonucleotides which were used, i.e. cysE-fwl and cysE-revl, are described in Example 1. The amplification was carried out as described in Example 3. The resulting fragments were cleaved with EcoRI/BamHI, purified through an agarose gel and ligated into vector pRS551 which had been cleaved with EcoRI and BamHI. This afforded the vector pRS551-based recombinant plasmids pRScysEIV, X and XI.
A heterogeneous lambda lysate, which contained recombinant cysE allele-carrying λRS45 derivatives in addition to λRS45 phages, was produced in vivo by homologous recombination by means of preparing a plate lysate on a pRScysE-carrying recA^+ strain (e.g. YMC9, ATCC 3397) using the λRS45 phage (Simons et al., 1987, Gene 53: 85-96).
The cysE strain JM15, which was infected with the heterogeneous lambda lysate and subsequently plated on kanamycin-containing (25 mg/L) LB plates, was used for selecting for the recombinant RS45 derivatives. The lysogenic, kanamycin-resistant clones which were obtained were then tested for their ability to grow on minimal medium plates without cysteine. A clone which was in each case cysteine-prototrophic was selected and used for preparing a homogeneous cysE λ lysate (by means of UV induction, Simons et al., 1987, Gene 53: 85-96).
The JM15 stain was infected with these homogeneous cysE λ lysates which were obtained in each case. The resulting JM15attλ::cysE strains were cultured as described in Example 6. Instead of tetracycline, the respective media in each case contained 25 mg of kanamycin per L as the selection agent.

production strain JM15 = assay: Cysteine production in 1 L fermenter, JM15 with plasmid-encoded cysE alleles; type: cell-based, E. coli; details: 48 h, JM15 transformed with plasmid
Method: Influence of different, plasmid-encoded cysE alleles on the production of L-cysteine or products derived from L-cysteine in a 1 L fermenter using the host strain JM15 20 mL of LB medium (1% tryptone, 0.5% yeast extract, 0.5% NaCl) contained in a 100 mL Erlenmeyer flask were inoculated with a single colony of the production strain JM15 (CGSC#5042) which had been transformed with the respective cysE plasmid.
After having been incubated for 7 hours in a bacterial shaker (30° C., 150 rpm), the respective preliminary cultures were transferred to 100 mL of SM1 medium. The SM1 medium contained 5 g/L glucose, 5 mg/L vitamin B1, 3 g/l KH2 PO4, 12 g/L K2 HPO4, 0.3 g/L MgSO4×7 H2 O, 0.1 g/L NaCl, 5 g/L (NH4)2 SO4, 14.7 mg/L CaCl2×2 H2 O, 2 mg/L FeSO4×2 H2 O, 1 g/L Na3 citrate×2 H2 O, 1 ml/L trace element solution and 25 mg/L tetracycline. The trace element solution was composed of 0.15 g/L Na2 MoO4×2 H2 O, 2.5 g/L H3 BO3, 0.7 g/L CoCl2×6 H2 O, 0.25 g/L CuSO4×5 H2 O, 1.6 g/L MnCl2×4 H2 O and 0.3 g/L ZnSO4×7 H2 O. The cultures were shaken in 1 L Erlenmeyer flasks at 30° C. and at 150 rpm for 17 h. After this incubation, the OD600 was between 4 and 5. The subsequent fermentation was carried out in Braun-Melsungen BIOSTAT M research fermenters. A culturing vessel having a total volume of 2 L was used.
The fermentation medium contained 15 g/L glucose, 5 g/L NaCl, 0.3 g/L MgSO4×7 H2 O, 15 mg/L CaCl2×2 H2 O, 75 mg/L FeSO4×7 H2 O, 1 g/L Na3 citrate×2 H2 O, 1.5 g/L KH2 PO4, 1 mL of trace element solution (see above), 5 mg/L vitamin B1, 2.5 g/L yeast extract (Difco), 2.5 g/L tryptone (Difco) and 25 mg/L tetracycline.
The glucose concentration in the fermenter was initially adjusted to a value of 15 g/L by pumping in a 700 g/L (w/v) (sterilized) glucose solution, and the pH was adjusted to 7.0 by pumping in a 25% NH4 OH solution. After an OD600 of 10 had been reached, 300 mg per hour were supplied from a sterile 100 g/L (w/v) stock solution of thiosulfate. 100 mL of preliminary culture were pumped into the fermenter vessel for the inoculation. The starting volume was approximately 1 L. The cultures were initially stirred at 400 rpm and aerated with 1.5 vvm of compressed air which had been sterilized by passing through a sterile filter. The fermentation was carried out at a temperature of 30° C.
The pH was maintained at a value of 7.0 by means of automatic correction with 25% NH4 OH. The oxygen saturation in the fermentation broth had at no time during the fermentation to fall below 20%; the stirring speed was used to ensure this. The glucose content of the nutrient solution, the optical density and the cysteine content were determined at two- to three-hourly intervals. The glucose content was determined enzymically using a glucose analyzer from YSI. The concentration of the glucose was adjusted to between 10 and 20 g/L by means of continuously feeding in this compound.
The content of cysteine in the medium was determined […] from the cell-free super-natant of the sample using the method of Gaitonde, M. K. (1967), Biochem. J. 104, 627-633.
The fermentation was terminated after 44-50 h.

[4] = Table 1a, 1 mM L-serine, 0.1 mM acetyl-CoA

Molecule	Ki [1] [µM]	feedback resistance elevated [2] [fold]	Ki [3] [µM]	Ki (serine acetyltransferase; [4]) [µM]	spec. act. (serine acetyltransferase; Table 1a) [µmol/min/mg]	Ki (serine acetyltransferase; Table 2, alleles from chemical mutagenesis) [µM]	yields of cysteine (JM15attλ::cysE strains) [g/L]	Cysteine yield (production strain JM15) [g/L]	Ki (serine acetyltransferase; Table 4, alleles from site-specific mutagenesis) [µM]
N[C@@H](CS)C(=O)O [L-cysteine]	1.1	10	~10	–	–	–	–	–	–
cysEX: mutant Thr167->Ala167 (protein, UniProt P0A9D4 1-273, looked up, variant T167A) Serine acetyltransferase: MSCEELEIVWNNIKAEARTLADCEPMLASFYHATLLKHENLGSALSYMLANKLSSPIMPAIAIREVVEEAYAADPEMIASAACDIQAVRTRDPAVDKYSTPLLYLKGFHALQAYRIGHWLWNQGRRALAIFLQNQVSVTFQVDIHPAAKIGRGIMLDHATGIVVGEAAVIENDVSILQSVTLGGTGKSGGDRHPKIREGVMIGAGAKILGNIEVGRGAKIGAGSVVLQPVPPHTTAAGVPARIVGKPDSDKPSMDMDQHFNGINHTFEYGDGI	–	–	–	50	0.156	50	1.8	3.4	–
cysEIV: double mutant Ala237->Val237, Gly238->Ser238 (protein, UniProt P0A9D4 1-273, looked up, variant A237V G238S) Serine acetyltransferase: MSCEELEIVWNNIKAEARTLADCEPMLASFYHATLLKHENLGSALSYMLANKLSSPIMPAIAIREVVEEAYAADPEMIASAACDIQAVRTRDPAVDKYSTPLLYLKGFHALQAYRIGHWLWNQGRRALAIFLQNQVSVTFQVDIHPAAKIGRGIMLDHATGIVVGETAVIENDVSILQSVTLGGTGKSGGDRHPKIREGVMIGAGAKILGNIEVGRGAKIGAGSVVLQPVPPHTTAVSVPARIVGKPDSDKPSMDMDQHFNGINHTFEYGDGI	–	–	–	40	0.170	–	0.5	1.6	40
